Assay results published in EP4772193A1 (Teijin Pharma Limited, dated 2026).

T1: human gpNMB (Human Osteoactivin, His-tag, AcroBioSystems) (human, UniProt Q14956-2 23-486, limits assumed)
T1 sequence (looked up): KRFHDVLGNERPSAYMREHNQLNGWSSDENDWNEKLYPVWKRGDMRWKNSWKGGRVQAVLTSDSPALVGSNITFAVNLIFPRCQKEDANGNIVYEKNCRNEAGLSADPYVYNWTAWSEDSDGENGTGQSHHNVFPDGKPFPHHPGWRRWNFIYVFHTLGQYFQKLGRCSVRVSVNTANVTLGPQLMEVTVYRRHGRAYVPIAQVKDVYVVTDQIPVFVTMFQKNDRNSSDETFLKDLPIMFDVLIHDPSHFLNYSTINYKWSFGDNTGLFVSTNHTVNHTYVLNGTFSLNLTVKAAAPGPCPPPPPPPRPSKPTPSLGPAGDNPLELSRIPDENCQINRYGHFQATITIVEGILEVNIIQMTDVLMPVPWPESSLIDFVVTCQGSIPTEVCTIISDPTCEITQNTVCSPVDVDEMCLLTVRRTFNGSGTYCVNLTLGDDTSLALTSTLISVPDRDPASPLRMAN

T2: recombinant human soluble gpNMB (recombinant human gpNMB-FLAG-His) (human, UniProt Q14956 23-498)
T2 sequence: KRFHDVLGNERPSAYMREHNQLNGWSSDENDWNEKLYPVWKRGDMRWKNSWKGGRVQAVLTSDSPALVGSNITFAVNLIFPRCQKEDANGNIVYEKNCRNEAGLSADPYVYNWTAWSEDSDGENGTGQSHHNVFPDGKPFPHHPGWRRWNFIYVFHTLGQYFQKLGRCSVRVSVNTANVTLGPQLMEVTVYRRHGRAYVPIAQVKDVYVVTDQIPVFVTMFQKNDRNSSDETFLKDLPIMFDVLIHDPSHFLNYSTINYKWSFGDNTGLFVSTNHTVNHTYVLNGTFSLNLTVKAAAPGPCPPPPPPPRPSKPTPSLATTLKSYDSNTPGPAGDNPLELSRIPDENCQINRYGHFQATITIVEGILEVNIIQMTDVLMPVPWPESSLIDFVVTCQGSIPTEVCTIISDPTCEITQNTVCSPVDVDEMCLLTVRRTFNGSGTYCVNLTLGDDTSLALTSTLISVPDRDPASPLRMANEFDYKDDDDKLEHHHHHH


Assays:
[1] = target: T1, human gpNMB (Human Osteoactivin, …); experiment: SPR Biacore 8K, antibody captured on protein A, gpNMB as analyte
[2] = target: T2, recombinant human soluble gpNMB …; experiment: antigen ELISA, vs hGPN06-1_H1L1
[3] = target: T2, recombinant human soluble gpNMB …; experiment: antigen ELISA

Binder | Kd [1] | koff [1] | kon [1] | Relative binding activity [2] | EC50 [3]
hGPN18-5_H2L1 (antibody, V domains shown, humanized; also called hGPN18-5_VH2+VL1) VH: QVQLVQSGAEVKKPGASVKVSCKASGYTFTTYWMNWVRQAPGQGLEWIGAINPSNDYTEYNQKFKDRATMTADTSTSTVYMELSSLRSEDTAVYYCGRSYSPDYWGQGTTVTVSS VL: DIQMTQSPSSLSASVGDRVTITCKASQNVDNHVAWFQQKPGKAPKALIYSASYRYSGVPSRFSGSGSGTDFTLTISSLQPEDFATYFCQQYKSYPFTFGGGTKLEIK | 661 nM | 0.00454 s⁻¹ | 6870 M⁻¹ s⁻¹ | – | –
hGPN18-5_H3L2 (antibody, V domains shown, humanized; also called hGPN18-5 VH3+VL2) VH: QVQLVQSGAEVKKPGASVKVSCKASGYTFTTYWMNWVRQAPGQGLEWIGAINPSNDYTEYNQKFKDRAIMTADKSTSTVYMELSSLRSEDTAVYYCGRSYSPDYWGQGTTVTVSS VL: DIQMTQSPSSLSASVGDRVTITCKASQNVDNHVAWFQQKPGKAPKALIYSASYRYSGVPDRFSGSGSGTDFTLTISSLQPEDFATYFCQQYKSYPFTFGGGTKLEIK | 548 nM | 0.00436 s⁻¹ | 7950 M⁻¹ s⁻¹ | – | –
hGPN18-5_H2L3 (antibody, V domains shown, humanized; also called hGPN18-5_VH2+VL3; GPN18-5-VH2+VL3) VH: QVQLVQSGAEVKKPGASVKVSCKASGYTFTTYWMNWVRQAPGQGLEWIGAINPSNDYTEYNQKFKDRATMTADTSTSTVYMELSSLRSEDTAVYYCGRSYSPDYWGQGTTVTVSS VL: DIQMTQSPSSLSASVGDRVTITCKASQNVDNHVAWHQQKPGKAPKALIYSASYRYSGVPDRFTGSGSGTDFTLTISSLQPEDFADYFCQQYKSYPFTFGGGTKLEIK | 190 nM | 0.00148 s⁻¹ | 7780 M⁻¹ s⁻¹ | – | –
hGPN06-1_H1L1 VH F57A (antibody, V domains shown) VH: QVQLVQSGAEVKKPGASVKVSCKASGYTFTDNWMGWVKQRPGQGLEWIGAIDPSDSATNYNQNFKGRVTMTVDTSISTAYMELSRLRSDDSAVYFCTRSGYYGSPKLGGDYWGQGTLVTVSS VL: EIVLTQSPSSLSASVGDRVTITCSASSSISYMHWYQQKSGTAPKLLIYSTSNLASGVPSRFSGSGSGTDFTFTISSLQPEDAATYYCHQWNSYPCTFGGGTKLEIK | – | – | – | 0.09 | 32.5 nM
hGPN06-1_H1L1 VH M34A (antibody, V domains shown) VH: QVQLVQSGAEVKKPGASVKVSCKASGYTFTDNWAGWVKQRPGQGLEWIGAIDPSDSFTNYNQNFKGRVTMTVDTSISTAYMELSRLRSDDSAVYFCTRSGYYGSPKLGGDYWGQGTLVTVSS VL: EIVLTQSPSSLSASVGDRVTITCSASSSISYMHWYQQKSGTAPKLLIYSTSNLASGVPSRFSGSGSGTDFTFTISSLQPEDAATYYCHQWNSYPCTFGGGTKLEIK | – | – | – | 1.06 | 3.55 nM
hGPN06-1_H1L1 VH F29A (antibody, V domains shown) VH: QVQLVQSGAEVKKPGASVKVSCKASGYTATDNWMGWVKQRPGQGLEWIGAIDPSDSFTNYNQNFKGRVTMTVDTSISTAYMELSRLRSDDSAVYFCTRSGYYGSPKLGGDYWGQGTLVTVSS VL: EIVLTQSPSSLSASVGDRVTITCSASSSISYMHWYQQKSGTAPKLLIYSTSNLASGVPSRFSGSGSGTDFTFTISSLQPEDAATYYCHQWNSYPCTFGGGTKLEIK | – | – | – | 0.54 | 4.8 nM
hGPN06-1_H1L1 VH N32A (antibody, V domains shown) VH: QVQLVQSGAEVKKPGASVKVSCKASGYTFTDAWMGWVKQRPGQGLEWIGAIDPSDSFTNYNQNFKGRVTMTVDTSISTAYMELSRLRSDDSAVYFCTRSGYYGSPKLGGDYWGQGTLVTVSS VL: EIVLTQSPSSLSASVGDRVTITCSASSSISYMHWYQQKSGTAPKLLIYSTSNLASGVPSRFSGSGSGTDFTFTISSLQPEDAATYYCHQWNSYPCTFGGGTKLEIK | – | – | – | 0.35 | 7.83 nM

Further binders by falling EC50 [3], results first:

Kd [1] | koff [1] | kon [1] | Relative binding activity [2] | EC50 [3] | Binder
– | – | – | 1.4 | 3.55 nM | hGPN06-1_H1L1 VH G35A (antibody, V domains shown) VH: QVQLVQSGAEVKKPGASVKVSCKASGYTFTDNWMAWVKQRPGQGLEWIGAIDPSDSFTNYNQNFKGRVTMTVDTSISTAYMELSRLRSDDSAVYFCTRSGYYGSPKLGGDYWGQGTLVTVSS VL: EIVLTQSPSSLSASVGDRVTITCSASSSISYMHWYQQKSGTAPKLLIYSTSNLASGVPSRFSGSGSGTDFTFTISSLQPEDAATYYCHQWNSYPCTFGGGTKLEIK
– | – | – | 0.51 | 2.79 nM | hGPN06-1_H1L1 VH D52A (antibody, V domains shown) VH: QVQLVQSGAEVKKPGASVKVSCKASGYTFTDNWMGWVKQRPGQGLEWIGAIAPSDSFTNYNQNFKGRVTMTVDTSISTAYMELSRLRSDDSAVYFCTRSGYYGSPKLGGDYWGQGTLVTVSS VL: EIVLTQSPSSLSASVGDRVTITCSASSSISYMHWYQQKSGTAPKLLIYSTSNLASGVPSRFSGSGSGTDFTFTISSLQPEDAATYYCHQWNSYPCTFGGGTKLEIK
– | – | – | 1.08 | 1.21 nM | hGPN06-1_H1L1 VH G26A (antibody, V domains shown) VH: QVQLVQSGAEVKKPGASVKVSCKASAYTFTDNWMGWVKQRPGQGLEWIGAIDPSDSFTNYNQNFKGRVTMTVDTSISTAYMELSRLRSDDSAVYFCTRSGYYGSPKLGGDYWGQGTLVTVSS VL: EIVLTQSPSSLSASVGDRVTITCSASSSISYMHWYQQKSGTAPKLLIYSTSNLASGVPSRFSGSGSGTDFTFTISSLQPEDAATYYCHQWNSYPCTFGGGTKLEIK
– | – | – | 0.89 | 0.993 nM | hGPN06-1_H1L1 VH I51A (antibody, V domains shown) VH: QVQLVQSGAEVKKPGASVKVSCKASGYTFTDNWMGWVKQRPGQGLEWIGAADPSDSFTNYNQNFKGRVTMTVDTSISTAYMELSRLRSDDSAVYFCTRSGYYGSPKLGGDYWGQGTLVTVSS VL: EIVLTQSPSSLSASVGDRVTITCSASSSISYMHWYQQKSGTAPKLLIYSTSNLASGVPSRFSGSGSGTDFTFTISSLQPEDAATYYCHQWNSYPCTFGGGTKLEIK
– | – | – | 1.26 | 0.515 nM | hGPN06-1_H1L1 VH D31A (antibody, V domains shown) VH: QVQLVQSGAEVKKPGASVKVSCKASGYTFTANWMGWVKQRPGQGLEWIGAIDPSDSFTNYNQNFKGRVTMTVDTSISTAYMELSRLRSDDSAVYFCTRSGYYGSPKLGGDYWGQGTLVTVSS VL: EIVLTQSPSSLSASVGDRVTITCSASSSISYMHWYQQKSGTAPKLLIYSTSNLASGVPSRFSGSGSGTDFTFTISSLQPEDAATYYCHQWNSYPCTFGGGTKLEIK
– | – | – | 1.11 | 0.448 nM | hGPN06-1_H1L1 VH F64A (antibody, V domains shown) VH: QVQLVQSGAEVKKPGASVKVSCKASGYTFTDNWMGWVKQRPGQGLEWIGAIDPSDSFTNYNQNAKGRVTMTVDTSISTAYMELSRLRSDDSAVYFCTRSGYYGSPKLGGDYWGQGTLVTVSS VL: EIVLTQSPSSLSASVGDRVTITCSASSSISYMHWYQQKSGTAPKLLIYSTSNLASGVPSRFSGSGSGTDFTFTISSLQPEDAATYYCHQWNSYPCTFGGGTKLEIK
– | – | – | 1.1 | 0.406 nM | hGPN06-1_H1L1 VH K65A (antibody, V domains shown) VH: QVQLVQSGAEVKKPGASVKVSCKASGYTFTDNWMGWVKQRPGQGLEWIGAIDPSDSFTNYNQNFAGRVTMTVDTSISTAYMELSRLRSDDSAVYFCTRSGYYGSPKLGGDYWGQGTLVTVSS VL: EIVLTQSPSSLSASVGDRVTITCSASSSISYMHWYQQKSGTAPKLLIYSTSNLASGVPSRFSGSGSGTDFTFTISSLQPEDAATYYCHQWNSYPCTFGGGTKLEIK
– | – | – | 1.09 | 0.373 nM | hGPN06-1_H1L1 VH G66A (antibody, V domains shown) VH: QVQLVQSGAEVKKPGASVKVSCKASGYTFTDNWMGWVKQRPGQGLEWIGAIDPSDSFTNYNQNFKARVTMTVDTSISTAYMELSRLRSDDSAVYFCTRSGYYGSPKLGGDYWGQGTLVTVSS VL: EIVLTQSPSSLSASVGDRVTITCSASSSISYMHWYQQKSGTAPKLLIYSTSNLASGVPSRFSGSGSGTDFTFTISSLQPEDAATYYCHQWNSYPCTFGGGTKLEIK
